Key:
[1] = molecular target: HXBc2 gp160?CT glycoprotein (HIV-1 isolate HXBc2; bovine rhodopsin) (UniProt P04578); test: FACS titration, anti-human IgG PE
[2] = molecular target: cleavage-defective YU2 gp160?CT glycoprotein (HIV-1 isolate YU2; bovine rhodopsin) (UniProt P35961); test: FACS on PLs, with against without sCD4 preincubation (without = 100%)
[3] = molecular target: Cleavage-competent YU2 gp160?CT glycoprotein (HIV-1 isolate YU2; bovine rhodopsin) (UniProt P35961); test: FACS on 293T cells, with against without sCD4 preincubation (without = 100%)
[4] = molecular target: cleavage-defective YU2 gp160?CT glycoprotein (HIV-1 isolate YU2; bovine rhodopsin) (UniProt P35961); test: FACS titration; saturation not reached with C11
[5] = molecular target: cleavage-defective YU2 gp160?CT glycoprotein (HIV-1 isolate YU2; bovine rhodopsin) (UniProt P35961); test: FACS titration on gp160?CT PLs / 293T cells, half-maximal binding

Question: Which fold higher affinity on PLs with a reconstituted membrane than on beads without a membrane [1] does the source give for 2F5 antibody here?
Answer: 10 fold

Question: For 17b antibody, which % increase of 17b binding after preincubation with sCD4 [2] is on record?
Answer: 46%

Question: What about the % increase of 17b binding after preincubation with sCD4 [3] of the same substance?
Answer: 63%

Question: Which fold lower affinity than IgG1b12 [4] does the source give for C11 antibody here?
Answer: > 10 fold

Question: How did the EC50 [5] turn out when IgG1b12 antibody was run?
Answer: 6 nM

Reference: patent publication US20040109887A1
